Results published in US7060449.

T1: rat GALR2 (rat)
T1 chain: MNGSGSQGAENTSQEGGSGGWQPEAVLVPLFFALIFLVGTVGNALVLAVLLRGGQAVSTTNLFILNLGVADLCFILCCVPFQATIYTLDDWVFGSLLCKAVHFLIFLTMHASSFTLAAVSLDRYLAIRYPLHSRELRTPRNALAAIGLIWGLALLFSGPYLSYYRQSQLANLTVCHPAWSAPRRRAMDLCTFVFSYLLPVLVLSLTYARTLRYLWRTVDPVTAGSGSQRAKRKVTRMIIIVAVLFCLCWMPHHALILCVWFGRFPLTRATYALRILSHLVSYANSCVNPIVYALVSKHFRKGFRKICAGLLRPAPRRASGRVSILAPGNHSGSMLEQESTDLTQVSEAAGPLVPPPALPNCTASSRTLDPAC


Assays:
rat GALR2 (rat) [1] = target: T1, rat GALR2 (rat); experiment: radioligand; conditions: modification not given
rat GALR2 (rat) [2] = target: T1, rat GALR2 (rat); experiment: competition; conditions: modification not given

| Binder | Kd (rat GALR2 (rat) [1]) [nM] | Ki (rat GALR2 (rat) [2]) [nM] |
| --- | --- | --- |
| GWTLNSAGYLLGPHAIDNHRSFHDKYGLA [[125I]porcine galanin, P07480] | 0.2 |  |
| GFTLNSAGYLLGPHAIDNHRSFHDKYGLA [[Phe2]porcine galanin(1-29), P07480] |  | > 1000 |
| GWTLASAGYLLGPHAI [[Ala5]galanin(1-16), P07480] |  | > 620 |
| GWTLNSAGALLGPHAI [[Ala9]galanin(1-16), P07480] |  | > 1000 |
| GWTLNSAGY [porcine galanin 1-9, P07480] |  | > 1000 |
| GFTLNSAGYLLGPHAI [Phe2-galanin 1-16, P07480] |  | > 1000 |
| GWTLNSAGYLLGPHAIDNHRSFHDKYGLA [porcine galanin(1-29), P07480] |  | 0.447 |
| GATLNSAGYLLGPHAI [porcine Ala2-galanin 1-16, P07480] |  | > 1000 |
| GWTLNSAGYLLGPHAIDNHRSFHDKYGLA [[D-Trp2]porcine galanin(1-29), P07480] |  | 6.46 |
| DNHRSFHDKYGLA [porcine galanin 17-29, P07480] |  | > 1000 |
